Measured values taken from publication PMC9718841.
pKd: −log10 of the molar value.

Columns and labels:
[1] = molecular target: recombinant human CALM2 protein (human) (UniProt P0DP24); assay: MST; CaCl2
[2] = molecular target: recombinant human CALM2 protein (human) (UniProt P0DP24); assay: MST; labelled CALM2 at 500 nM, peptide in 16-point serial dilution, 25 °C; in the absence (1 mM EDTA, Apo-CALM2) and presence of Ca2+

peptide TLIQ2, sequence (O00206 whole entry, looked up, tested part not stated): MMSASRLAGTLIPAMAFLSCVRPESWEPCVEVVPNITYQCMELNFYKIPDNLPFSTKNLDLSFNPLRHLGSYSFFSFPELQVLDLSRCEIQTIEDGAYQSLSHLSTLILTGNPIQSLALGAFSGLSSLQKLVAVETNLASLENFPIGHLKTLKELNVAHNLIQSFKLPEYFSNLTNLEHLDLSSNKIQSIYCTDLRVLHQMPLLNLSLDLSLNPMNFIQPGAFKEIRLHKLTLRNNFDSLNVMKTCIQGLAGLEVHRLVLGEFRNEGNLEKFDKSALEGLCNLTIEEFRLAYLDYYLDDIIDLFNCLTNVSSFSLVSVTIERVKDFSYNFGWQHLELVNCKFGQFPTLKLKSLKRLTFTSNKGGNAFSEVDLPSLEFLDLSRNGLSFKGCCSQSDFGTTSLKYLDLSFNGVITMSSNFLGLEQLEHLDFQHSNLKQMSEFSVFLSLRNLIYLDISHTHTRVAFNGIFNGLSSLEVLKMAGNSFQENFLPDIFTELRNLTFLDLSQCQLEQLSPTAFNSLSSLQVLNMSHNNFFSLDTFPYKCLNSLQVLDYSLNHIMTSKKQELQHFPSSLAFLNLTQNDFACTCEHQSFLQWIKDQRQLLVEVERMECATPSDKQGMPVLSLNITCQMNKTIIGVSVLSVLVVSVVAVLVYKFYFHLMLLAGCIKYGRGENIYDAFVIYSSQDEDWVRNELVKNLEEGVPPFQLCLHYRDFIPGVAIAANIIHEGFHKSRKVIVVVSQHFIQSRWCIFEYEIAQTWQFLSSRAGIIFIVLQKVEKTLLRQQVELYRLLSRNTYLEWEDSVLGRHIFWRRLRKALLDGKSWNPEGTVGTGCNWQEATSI

| Substance | pKd [1] | pKd [2] |
| --- | --- | --- |
| peptide TLIQ2 (from UniProt O00206) | 5.04 |  |
| peptide TLIQ2 |  | 5.17 |
